Values quoted from earlier work in paper PMC3749792.

What was measured:
Test in all cases: NMR
Details in all cases: RNase T1, presumably free unmodified enzyme (not stated explicitly)
[1] = biological target: His92 (UniProt position 118, AGVITHTGASG)
[2] = biological target: His40 (UniProt position 66, SNSYPHKYNNY)
[3] = biological target: His27 (UniProt position 53, AGYQLHEDGET)

Ribonuclease T1 (RNase T1) (Aspergillus oryzae)
pKa [1]: 7.80
pKa [2]: 7.92
pKa [3]: 7.26
